Experimental findings from publication PMC2757994 (The Journal of Biological Chemistry, 2009) are described below.

The data set deals with the molecule itself. Nature of the data set: SEC-MALS.

B1: fibulin 5 fragment, residues 120–333 (cbEGFs 2–6) (domain or fragment, UniProt Q9UBX5 120-333, looked up)
chain: DESNQCVDVDECATDSHQCNPTQICINTEGGYTCSCTDGYWLLEGQCLDIDECRYGYCQQLCANVPGSYSCTCNPGFTLNEDGRSCQDVNECATENPCVQTCVNTYGSFICRCDPGYELEEDGVHCSDMDECSFSEFLCQHECVNQPGTYFCSCPPGYILLDDNRSCQDINECEHRNHTCNLQQTCYNLQGGFKCIDPIRCEEPYLRISDNRCM
modifications: N-glycosylated by the EBNA 293 cells (potential N-linked sites at residues 283 and 296)
Turning to B1, the “stoichiometry N” value amounted to 2.
